Target: HER2 on cancer cell lines (BT-474, SK-BR-3, MDA-MB-361-luc) (human) (UniProt P04626)
Experiment: cell-based or functional assay

Emax, BT-474 cell proliferation (CellTiter-Glo 2.0, 4 days): 41.5% | IC50, BT-474 cell proliferation (CellTiter-Glo 2.0, 4 days): 0.125 µg/mL | IC50, SK-BR-3 cell proliferation (CellTiter-Glo 2.0, 4 days): 0.431 µg/mL
Substance: ZW-25 bispecific antibody
